# Measured values from article PMC9177958, “Structures of nonsense-mediated mRNA decay factors UPF3B and UPF3A in complex with UPF2 reveal molecular basis for competitive binding and for neurodevelopmental disorder-causing mutation” (Nucleic Acids Research, 2022).
# T1: UPF3B-WT (human, UniProt Q9BZI7-2 1-470)
# T1 sequence: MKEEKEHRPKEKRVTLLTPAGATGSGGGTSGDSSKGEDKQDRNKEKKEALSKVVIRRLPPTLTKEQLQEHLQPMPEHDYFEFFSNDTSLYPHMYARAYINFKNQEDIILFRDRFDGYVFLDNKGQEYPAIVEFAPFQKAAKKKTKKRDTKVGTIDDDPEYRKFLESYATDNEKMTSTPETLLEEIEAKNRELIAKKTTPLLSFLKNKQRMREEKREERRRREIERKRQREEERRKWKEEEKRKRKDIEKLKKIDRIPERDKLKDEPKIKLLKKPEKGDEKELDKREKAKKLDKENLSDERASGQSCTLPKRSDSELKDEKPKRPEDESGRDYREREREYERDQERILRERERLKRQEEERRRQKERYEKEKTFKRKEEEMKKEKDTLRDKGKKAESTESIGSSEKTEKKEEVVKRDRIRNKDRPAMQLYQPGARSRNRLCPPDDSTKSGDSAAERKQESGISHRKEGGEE
# T2: UPF3B-146-417 (human, UniProt Q9BZI7-2 146-417)
# T2 sequence: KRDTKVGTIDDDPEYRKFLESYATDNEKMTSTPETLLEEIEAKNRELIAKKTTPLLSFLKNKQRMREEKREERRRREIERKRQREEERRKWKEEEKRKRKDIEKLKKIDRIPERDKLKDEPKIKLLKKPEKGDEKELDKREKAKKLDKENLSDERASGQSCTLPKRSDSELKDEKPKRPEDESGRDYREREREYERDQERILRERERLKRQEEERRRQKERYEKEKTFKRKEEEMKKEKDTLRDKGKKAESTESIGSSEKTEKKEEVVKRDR
# T3: UPF3B-146-256 (human, UniProt Q9BZI7 146-256)
# T3 sequence: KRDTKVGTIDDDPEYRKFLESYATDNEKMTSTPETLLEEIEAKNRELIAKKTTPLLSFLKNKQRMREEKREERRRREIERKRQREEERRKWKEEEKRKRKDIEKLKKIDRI
# T4: UPF3B-41-262 (human, UniProt Q9BZI7 41-262)
# T4 sequence: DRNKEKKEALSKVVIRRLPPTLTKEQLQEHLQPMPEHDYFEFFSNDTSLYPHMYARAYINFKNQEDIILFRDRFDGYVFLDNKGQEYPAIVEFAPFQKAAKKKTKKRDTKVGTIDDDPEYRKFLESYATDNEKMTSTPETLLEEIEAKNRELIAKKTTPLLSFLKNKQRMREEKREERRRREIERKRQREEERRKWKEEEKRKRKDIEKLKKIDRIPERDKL
# T5: UPF3B-41-214 (human, UniProt Q9BZI7 41-214)
# T5 sequence: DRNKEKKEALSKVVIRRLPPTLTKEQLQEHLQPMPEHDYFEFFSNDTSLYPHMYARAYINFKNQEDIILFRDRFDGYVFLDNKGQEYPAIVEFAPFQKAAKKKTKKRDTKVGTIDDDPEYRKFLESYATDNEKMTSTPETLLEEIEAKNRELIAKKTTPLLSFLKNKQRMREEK
# T6: UPF3B-41-143 (RRM-L) (human, UniProt Q9BZI7 41-143)
# T6 sequence: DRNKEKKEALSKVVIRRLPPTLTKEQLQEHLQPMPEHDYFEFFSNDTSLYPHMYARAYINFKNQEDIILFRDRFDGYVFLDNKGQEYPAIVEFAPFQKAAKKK
# Experiments:
# Assay in all cases: fluorescence anisotropy; FA: 5 nM probe, 150 mM NaCl, 25 mM HEPES pH 7.45, 1 mM TCEP, 20 C; EMSA: 250 nM probe, 25 mM HEPES pH 7.45, 2 mM MgCl2, 150 mM NaCl, 0.5 mM TCEP, on ice
# UPF3B-WT = molecular target: T1, UPF3B-WT; conditions: protein: recombinant, tags: 6xHis removed by TEV
# UPF3B-146-417 = molecular target: T2, UPF3B-146-417; conditions: protein: recombinant; tags: 6xHis removed by TEV; label: 5' HEX on strand 1; blunt
# UPF3B-146-256 = molecular target: T3, UPF3B-146-256; conditions: protein: recombinant; tags: 6xHis removed by TEV; label: 5' HEX on strand 1; blunt
# UPF3B-41-262 = molecular target: T4, UPF3B-41-262; conditions: protein: recombinant; tags: 6xHis removed by TEV; label: 5' HEX on strand 1; blunt
# UPF3B-41-214 = molecular target: T5, UPF3B-41-214; conditions: protein: recombinant; tags: 6xHis removed by TEV; label: 5' HEX on strand 1; blunt
# UPF3B-41-143 (RRM-L) = molecular target: T6, UPF3B-41-143 (RRM-L); conditions: protein: recombinant; tags: 6xHis removed by TEV; label: 5' HEX on strand 1; blunt
# UPF2-MIF4GIII = UPF2-MIF4GIII (UniProt Q9HAU5 761-1054); conditions: protein: recombinant; tags: 6xHis removed by TEV; label: 5' HEX; single strand; 24-mer hairpin RNA
# [1] = molecular target: UPF3B-41-143 (RRM-L);UPF2-MIF4GIII (human;human?, UniProt Q9BZI7;Q9HAU5 41-143;761-1054, |); conditions: protein: recombinant;recombinant; tags: 6xHis removed by TEV;6xHis removed by TEV; copies: 1;1; label: 5' HEX; single strand; 24-mer hairpin RNA
# UPF3B-41-143 (RRM-L);UPF2-MIF4GIII, sequence (Q9HAU5 761-1054, one chain of several): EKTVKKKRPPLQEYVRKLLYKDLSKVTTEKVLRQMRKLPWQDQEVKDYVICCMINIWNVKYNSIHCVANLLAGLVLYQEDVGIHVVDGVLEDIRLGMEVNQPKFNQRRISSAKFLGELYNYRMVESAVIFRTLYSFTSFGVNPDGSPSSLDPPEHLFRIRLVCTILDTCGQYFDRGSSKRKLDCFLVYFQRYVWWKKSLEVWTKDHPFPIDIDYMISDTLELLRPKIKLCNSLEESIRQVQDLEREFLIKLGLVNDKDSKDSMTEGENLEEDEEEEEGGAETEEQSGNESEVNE
# UPF2-MIF4GIII, sequence (Q9HAU5 761-1054): as the sequence (Q9HAU5 761-1054, one chain of several) above
Binder,"Kd (UPF3B-WT; label: 5' HEX on strand 1, blunt) [nM]",Kd (UPF3B-146-417) [nM],Kd (UPF3B-146-256) [nM],Kd (UPF3B-41-262) [nM],Kd (UPF3B-41-214) [nM],Kd (UPF3B-41-143 (RRM-L)) [nM],"Kd (UPF3B-WT; label: 5' HEX, single strand, 24-mer hairpin RNA) [nM]",Kd (UPF2-MIF4GIII) [nM],Kd [1] [nM]
24mer dsRNA (dsRNA) RNA 1: CCCUGAGCUGACGCAGCACCUGGG RNA 2: CCCAGGUGCUGCGUCAGCUCAGGG,15,280,1800,37,1200,9200,,,
CACUGAUCUGACGCUGCACCUGGG (ssRNA) [24mer ssRNA],,,,,,,30,~700,620
